From the DeepSol protein solubility set

Test: soluble on expression in E. coli; label from the status in PepcDB or PDB records

| Sequence | soluble on expression in E. coli |
| --- | --- |
| MSLRITEGSAVIEVPEAYSGPGRRSPGFYNADQVLNRDLTIDLINEFGVEKVLDGFGGSGVRGIRISLETKAKVVIAEISPSSCEIIKQNIAINNAEADLIHDNFQCVSSHIAFDYIDVDPYGSPVPYLDAAIMNVRKGGYLGITATDQSTLTGSTLNKTRRRYGAYIVNDIYRHEMGIRTLIGYIARRAAAFDRYIEPQLSIWNHHYYRVFVKVGKGVNGADKMIENIGYLNKHTTIDNSFKDVNEGPVWLSNLNNAELLEKIRDPRVSKKIEMIKHDNRLLFVDLTDIARKTSLSLPPLAKVMDEIMKHGYEAHRTSFSPTGIKTDCPYAEVSEILKAYAKREGHHHHHH | soluble |
| MKSLGNRQRFLRRAREELKRSIRDKVRAGGIAELDREHVVPIPRKGTGEPTFGDDKESGRRQHILPGNRTFSSGDLIPKPGGGGGYGSAAGTTESEDDFRFVLSREEVLDLFFEDLELPDLVKLNLKQVLSFKPRRAGFAASGAPTNINVGRTMRNSHGRRIALRRPKQAELDAIARQIAELEAKPASALVRERIAALREALDRLERRRKRIAYVDPVDIRFNRFDPQPLPNANAVMFCLMDVSGSMGEREKDLAKRFFVLLHLFLTRRYERTDIVFIRHTHLAKEVDEHTFFYHTESGGTVVSTALEEMHRIIEQRYPVAEWNIYAAQASDGDNFAGDSERCIELLDRKLMRLCQYFAYVEIIDERESHIFGATENGTSLWRAYNAVDGKWPNFQMRRIAAPADIYPVFRQLFARQPDLRKSALEHHHHHH | soluble |
| MQFEHLVQVNDRTLVDLPVLDRLQLWEGLVCRAREPQYFVVGLERFEILVDDGDRLHRRLYLPGLVVEDEVVLKAPDSAHYSIKPSAEVAGGSLDMTIEEPEPGSLFVRFAYCTRYLQPLGDELPYDAFVKQAYIAMDVETIATIRDRFGASAASGS | soluble |
| EQQADGTWLMDGWISIRKASNLLEHDLVDEAERYSTLGGYLLWQFGYIPAAGEQITVDGLIFEIVSVNKHNIGKVRVHRTQPENE | not soluble |
| MGHHHHHHSHKPIKVEKTVTINKPADELYRYWHNFENLPTFMKHLKSVKVYNEKRSHWIANAPLGNSVEWDADILEDRENEFISWASAEGADVENSGFVRFQKAPGDVPGQAASRLRGTEVKVVLEYNLPGGALAAVVAKLFGEEP | not soluble |
| MGHAKHLIDGNIETFWHSRWQGGSDPLPYEIIIDMNHRVKIAQIELLPRGRGSNNPIKVVRFEASEDGTNWESIGQFGFTNQDAALKYYVKSSTARYIKLVIPDGVGNGTVAAIRELDVRGTVVNLEHHHHHH | not soluble |
| MQNRQVANATKVAVAGASGYAGGEILRLLLGHPAYADGRLRIGALTAATSAGSTLGEHHPHLTPLAHRVVEPTEAAVLGGHDAVFLALPHGHSAVLAQQLSPETLIIDCGADFRLTDAAVWERFYGSSHAGSWPYGLPELPGARDQLRGTRRIAVPGCYPTAALLALFPALAADLIEPAVTVVAVSGTSGAGRAATTDLLGAEVIGSARAYNIAGVHRHTPEIAQGLRAVTDRDVSVSFTPVLIPASRGILATCTARTRSPLSQLRAAYEKAYHAEPFIYLMPEGQLPRTGAVIGSNAAHIAVAVDEDAQTFVAIAAIDNLVKGTAGAAVQSMNLALGWPETDGLSVVGVAP | soluble |
| MNKKIFVIGSGLSGLVASTELLKKGYHVTMLDQEPRQAIGGQAYWSFGGLFLVNSKIQQRLGVKDSYELALNDWLGSAQFDRPDDEDYWAKQWAEAYVRFATFEKENYLKEMGVRLTPILGWAERGGASASGHGNSVPRFHITWGTGPGLVEPFSRFVLEKEQEGQFKFLPRHQVTDIGIEHNQVTHISGIILEPSDVERGEKSSRTVIDTFHYEVDELLITSGGIGANMPLIRKYWPKRLGNPPKTMIQGVPDSTDGHLIQVTEDAGANIVNKDRMWHYTEGIQNHSPIWSNHGIRIIPGPSSMWFDATGKRMAAPDYPGFDTLHTLETIMKTGYDYSWFILTEDIIKKEFVLSGSEQNPDLTDKDIKLLLQERLGSKATSPVEAFMDKGPDFILADDLGMLVRKMNDLAGNDLLNYETIKHEIKARDLQIDNPFTKDPQVAFINNARQFLGNKLVRTAKPHKILSGRNGRLIAVKLNIISRKTLGGIQTNLDGQALNPSMQPIQGLYAAGEASGFGGGGVHGYRALEGTFLGGCIFSGIRAAEGIHHHIQLEHHHHHH | soluble |
| KPFNDEKTAKIAEEVQQFYESNATISLNEYLENVGELGYELYLTDGAEKSTYYGGAFRKKDLPDKTIKQVLDGETYHGIDSFDTGIFITGFFDNDVRNTIGVPVQADGKQLALFIRQDPEKQFGE | not soluble |
| MSLKITGLRTRRIHIPFDKPIGTSIHRIEGVSGLLVWLDTDEGITGESYLWAIGRHRVPVLESIVRMLGERAIGKDPRDTTARFDEMWTEINFLGHKGVSLFGIAAIDWACWDILGQSLGASVSRLLGRRRDRVTAYASGGLWASMTIPELEAQARDFVAQGFTAVKMRIGKPDIGEDIERVAAVRSAIGSRIKLMADANQGLSVNHAIRLGRKLETFDLVWFEEPVQAYDLEGSARVAAEIDTPIASGETEYGRYGFRDMLERKSADVLMPDLERVGGVTEWVRVAHMAAAYDVPVSPHIFSEHSLQLCGAISNVNYAEHMPWFAELFQERLEMVDGDLLIPDRPGMGFRFDPDAVERYADEGHHHHHH | soluble |
| TLIFDREEKEAGALSGQKGTYVELTDISKNLQNAVIATEDRSFYKNDGINYGRFFLAIVTAGRSGGGSTITQQLAKNAYLSQDQTVERKAKEFFLALELSKKYSKEQILTMYLNNAYFGNGVWGVEDASKKYFGVSASEVSLDQAATLAGMLKGPELYNPLNSV | not soluble |
| MKHHHHHHPMSGLVPRGSAMGEPLASASKFSSIVSNDIDMNFRSFKFWVHNDNLMEVKTRILRHLPVLVYANVPSENDDLVNRFESDISNNDEIVGSSSSTSSVEHGLGARSFDPLINTLYFDNEHFELYNDKLLKLNSAPTLRLRWTGQLSDKPDIFLEKKTLIEDEATGKSEFDLTKLQLKQKFINGFIFEGDKKFKEQTLKKLKESGTAGRDLERLEEDFSEIQNFIIKNELQPVFRTVYTRTAFQIPGDDKIRVTIDSNIVFIKEDSFDRERPIRDPNTWHRTDIDANVANPLKFLRGGEYAKFPYSVMEIKVKSSLDSSMSASSMISNVKLPKKHGQWLNDLTNSHLVKEIPKFSIFVQGVASLYGDDEKLDILPFWLPDLETDIRQ | soluble |
| TIVYDKDGDKAGELSSTDATFVSIDKISKNLQNAVVSIEDRRFYEHKGFDLKGIARAGVNLITNGGISGGGSTITQQLAKNALLTQEQTFTRKAKEIFMAREIEKTYSKDEIMEMYLNRSYFGNGEWGVENASLKYFGKPAADLNIPEAATIAGLLQAPSAYDPYQHI | not soluble |
| GMAKKTLILYYSWSGETKKMAEKINSEIKDSELKEVKVSEGTFDADMYKTSDIALDQIQGNKDFPEIQLDNIDYNNYDLILIGSPVWSGYPATPIKTLLDQMKNYRGEVASFFTSAGTNHKAYVSHFNEWADGLNVIGVARDDSEVDKWSK | soluble |
| MGSDKIHHHHHHIPNLEKSGSNFCMPFKGINVVKKCNMEYFLLNADFVNLEKTVFKKSQTLDNVCTGPENTFKTPDAGNYVVRYGERVLMTYKAGSNYRKCIGTYDVDDDLFTCVMPTDNNGFEGLEMGGFLYDPVTGEPHRDDGSVEVFCKIPHKF | not soluble |
| MGSDKIHHHHHHMKDLSSIVAKFNTQGTITEIKPLGAGLINDTYKVNTQEADAPDYVLQRINHAIFQNVEMLQSNIAAVTGHIRKKLTEAGEADIDRKVLSFLATEEGKTYWFDGESYWRVMVFIPRAKTYETVNPEYSNYAGEAFGNFQAMLADIPETLGETIPDFHNMEFRLKQLRDAVAANAAGRVAEVQYYLDEIEKRADEMCKAERLFREGKLPKRVCHCDTKVNNMMFDEDGKVLCVIDLDTVMPSFIFSDYGDFLRTGANTGDEDDKDLNRVNFNMEIFKAFTKGYLKGAKSFLTPIEIENLPYAAALFPYMQCVRFLADYINGDTYYKIKYPEHNLVRTKAQFKLLQSVEEHTPEMVAFINECLVNG | not soluble |
| MTISGISSDQPFIETIDTLMLGGFPVLSTTPSAFVASLYRSLIEERQQRVFFANTNFIVQCQSLRGRMYSERVCILNDGIGMDLAALFIHGRRFVSNLNGTDLIPYLCQHAPRPLRFFLLGAKPGVADMAAQMLCQLGQLVVGTCDGYAQFVATGEDLVESINASGADVLLVALGNPVQERWILDHDVQLRTPLVFGVGALFDFMSGNVRRAPLWVRRVRGEWLYRLLLEPRRLLKRYSWDLLRFFGVCLLRRREGD | not soluble |
| MAKRDYYEVLGVSRDAEEREIKKAYKRLAMKFHPDRQSEDKNAEEKFKEAKEAYEILTDAQKRAAYDQYGHAAFEQGGMGGGGFGGGGGGADFSDIFGDVFGDIFGGGRRQQRASRGSDLRYNMDLTLEEAVRGVTKEIRIPTLDECDVCHGSGAKPGSSPVTCPTCHGAGQVQMRQGFFTVQQACPHCHGRGQIIKDPCNKCHGHGRVEKSKTLSVKIPAGVDTGDRIRLSGEGEAGEHGAPSGDLYVQVQVKAHPIFEREGNNLYCEVPINFAMAALGGEIEVPTLDGRVKLKIPAETQTGKMFRMRGKGVKSVRGGSQGDLLCRVVVETPVSLSEKQKQLLRELEESFVGAAGEKNSPRAKSFLDGVKKFFDDLTR | not soluble |
| NSLSTDMSVNRDNRTITSSIMRVSNSSELIQFKNKTAPYFSEKRNVEVNINGVAKDIYGRQIVCRHLASYWEMNFMETNGKVNYQLLSTPDAIAKNVCLEKTEDFSKSPAYIYFVENKKWGTVITNFFYNMKKNGDFVRTLSACTLNHQMALGLKIKRVQESEKWVVQFFDPNRTVTHKRTVFTCDSHFELSQLSAKDFFDDFYWKIYGLEQPGQVIFEDRHNSPLTNTVKLLPDELINSRVIYHAITKNLTEVLFILMEKYKNGEISQSKLVNLLATRSSDGTPAFYIALQNGYSDIIQVYGKILNMCNLSQETILTLLAAVGANNVPGLCMSFMNGHVDTIKAYGEIVFKTPLTSDKRLYLLAAKDSHDLPGLFFALQNGHADSIRMFGSLLNKKMLSSEQIKELLKVKHGLFMALQNGHTKAIMAYGDILKILPPHQEYIDELLWIKNPNGTSGLFMAFYNGHTETIRAFCNILKNYSFTTRRLVEMLSATNKDGIPGVFVSVVNRDKETILEYCRIIKENNLEPDTIAEQFSKKMKKTFIEIINRFNHFL | soluble |
| GMGSYQLLVPPPEALSKPLSVPTRLLLGPGPSNLAPRVLAAGSLRMIGHMQKEMLQIMEEIKQGIQYVFQTRNPLTLVVSGSGHCAMETALFNLLEPGDSFLTGTNGIWGMRAAEIADRIGARVHQMIKKPGEHYTLQEVEEGLAQHKPVLLFLVHGESSTGVVQPLDGFGELCHRYQCLLLVDSVASLGGVPIYMDQQGIDIMYSSSQKVLNAPPGISLISFNDKAKYKVYSRKTKPVSFYTDITYLAKLWGCEGETRVIHHTTPVTSLYCLRESLALIAEQGLENCWRRHREATAHLHKHLQEMGLKFFVKDPEIRLPTITTVTVPAGYNWRDIVSYVLDHFSIEISGGLGPTEERVLRIGLLGYNATTENVDRVAEALREALQHCPKNKL | soluble |
| MAHHHHHHMNLNKKNEELEKVKIVLTQKIKNLESNLSPKESEIKVMREKIDEMAKSFENNHKKRVNLQIEINEYKMKIKFLHDDLLNYNKTIMNYEKILKNLQDHIKECYLHLHDKKIFNSSFLNLYNKFHKVNDVQNYDAKNVFSEYIRQKEYLENMIEVLKDKLHKETEAFRNEKIKMMNENSLLLKEINDLKMDLNFLKSECHEAQLQNRKMKFLKKRSESKERKKEKKEKKEKKEKKENKDNNEEKNIDIK | soluble |
